Reference: patent US20250381284A1 (Eli Lilly, published 2025)
One block for each binder: values may come before it.

Target: T1, human TfR ECD (human, UniProt P02786 89-760)
T1 construct: extracellular domain; also called Human Transferrin Receptor 1 extracellular domain
Assay: SPR (Biacore 8K), human TfR ECD amine-coupled on CM3 chip, 25 C, 2-state model
Protocol: Target human TfR ECDs were immobilized on a CM3 chip (Cytiva P/N BR100536) using standard NHS-EDC amine coupling. The TfR binding proteins were prepared at a final concentration of 1.8, 0.6, 0.2, 0.067, 0.022, 0.0074, 0.0025 μM respectively by dilution of stock solution into running buffer.
Binding analysis was performed in a single-cycle or multi-cycle kinetics manner. Each analysis cycle consisted of (1) injection of the lowest to highest concentration proteins over all flow channel at 50 μL/min for 200 seconds followed by return to buffer flow for 900 seconds to monitor dissociation phase; (2) regeneration of chip surfaces with injection of 3M magnesium chloride, for 30 seconds at […] over all cells; and (3) equilibration of chip surfaces with a 50 μL (30-sec) injection of HBS-EP+. Data were processed using standard double-referencing and fit to a 2-state binding model using Biacore 8K Evaluation software, to determine the association rate (kₒₙ, M⁻¹s⁻¹ units), dissociation rate (koff, s⁻¹ units), and Rₘₐₓ (RU units). The equilibrium dissociation constant (KD) is calculated from the relationship KD=koff/kₒₙ, and is in molar units.

Kd: 12.4 nM
B1: TBP5 (Fab1-One Arm Heteromab 2, S124C) (antibody, human IgG4 S228P, kappa, F234A L235A)
heavy 1: EVQLVESGGGLVKPGGSLRLSCVASGFTFSSYSMNWVRQAPGKGLEWVSSISSSSSYIYYADSVKGRFTISRDNAKNSLYLQMNSLRAEDTAVYYCARRHGYSNSDAFDNWGQGTLVTVSSASTKGPCVFPLAPCSRSTSESTAALGCLVKDYFPEPVTVSWNSGALTSGVHTFPAVLQSSGLYSLSSVVTVPSSSLGTKTYTCNVDHKPSNTKVDKRVESKYGPPCPPCPAPEAAGGPSVFLFPPKPKDTLMISRTPEVTCVVVDVSQEDPEVQFNWYVDGVEVHNAKTKPREEQFNSTYRVVSVLTVLHQDWLNGKEYKCKVSNKGLPSSIEKTISKAKGQPREPQVSTLPPSQEEMTKNQVSLMCLVYGFYPSDIAVEWESNGQPENNYKTTPPVLDSDGSFFLYSVLTVDKSRWQEGNVFSCSVMHEALHNHYTQKSLSLSLG
light: DIQMTQSPSAMSASVGDRVTITCRASQGISHYLVWFQQKPGKVPKRLIYAASSLQSGVPSRFSGSGSGTEFTLTISSLQPEDFATYYCLQHNSYPWTFGQGTKVEIKRTVAAPSVFIFPPSDEQLKSGTASVVCLLNNFYPREAKVQWKVDNALQSGNSQESVTEQDSKDSTYSLSSTLTLSKADYEKHKVYACEVTHQGLSSPVTKSFNRGEC
heavy 2: ESKYGPPCPPCPAPEAAGGPSVFLFPPKPKDTLMISRTPEVTCVVVDVSQEDPEVQFNWYVDGVEVHNAKTKPREEQFNSTYRVVSVLTVLHQDWLNGKEYKCKVSNKGLPSSIEKTISKAKGQPREPQVYTLPPSQGDMTKNQVQLTCLVKGFYPSDIAVEWESNGQPENNYKTTPPVLDSDGSFFLASRLTVDKSRWQEGNVFSCSVMHEALHNHYTQKSLSLSLG
notes: One-arm heteromab, hIgG4 PAA, tested as the unconjugated protein; also called OAH2

Kd: 18.6 nM
koff: 0.00671 s⁻¹
kon: 361000 M⁻¹ s⁻¹
B2: TBP8 (Fab2-VHH) (Fab)
heavy: EVQLVESGGGLVKPGGSLRLSCVASGFTFSSYSMNWVRQAPGKGLEWVSSISSSSSYIYYADSVKGRFTISRDNAKNSLYLQMNSLRAEDTAVYYCARRHGYSNSDAFDTWGQGTLVTVSSASTKGPCVFPLAPSSKSTSGGTAALGCLVKDYFPEPVTVSWNSGALTSGVHTFPAVLQSSGLYSLSSVVTVPSSSLGTQTYICNVNHKPSNTKVDKRVGGGGQGGGGQGGGGQGGGGQGGGGQEVQLLESGGGLVQPGGSLRLSCAASGRYIDETAVAWFRQAPGKGREFVAGIGGGVDITYYADSVKGRFTISRDNSKNTLYLQMNSLRPEDTAVYYCGARPGRPLITSKVADLYPYWGQGTLVTVSSPP
light: DIQMTQSPSAMSASVGDRVTITCRASQGISHYLVWFQQKPGKVPKRLIYAASSLQSGVPSRFSGSGSGTEFTLTISSLQPEDFATYYCLQHNSYPWTFGQGTKVEIKRTVAAPSVFIFPPSDEQLKSGTASVVCLLNNFYPREAKVQWKVDNALQSGNSQESVTEQDSKDSTYSLSSTLTLSKADYEKHKVYACEVTHQGLSSPVTKSFNRGE
